Results on one molecule are retold here after paper PMC2112703.

The assay addresses rabbit skeletal muscle actin (rabbit), P68135. Kind of assay: cross-linking. The note with it: remark: other sources report otherwise.

B1: depactin (actin-depolymerizing protein from starfish oocytes), P20690 1-150 (natural protein)
chain: PQSGTALDENVKEEIRAFKMDQSKVKVPWMLLEIVQNDDRIDVVKVTKKAGPSDNLETLREELKQREVVYFVLDYEPSEEKRAKHNIPKGKTYPLTCFWSMETANIKLKMKYSSTVGTLKSATSTLKTYLEAHDFDDLSEEAIGDKIKNF
B1 had a stoichiometry N of 1.

For orientation: stoichiometry N means a count of units in the complex or per binding partner.
